The text below walks through data of patent publication US20090196872A1 (KIRIN BEER, published 2009).

In one experiment the target is M2TDGEKS peptide (influenza A virus). As to the kind of experiment: peptide ELISA, grade relative to wild-type M2.
In a further experiment the target is M2KGENS peptide (influenza A virus). As to the kind of experiment: peptide ELISA, grade relative to wild-type M2. A general note: An ELISA detects its analyte on a solid surface through an enzyme-linked reagent.
The target in another experiment is M2LGS peptide (influenza A virus). Nature of the experiment: peptide ELISA, grade relative to wild-type M2.
The next experiment concerns the target M2TGS peptide (influenza A virus). As to the kind of experiment: peptide ELISA, grade relative to wild-type M2.
The target of the next experiment is M2HTGEKS peptide (influenza A virus). As to the kind of experiment: peptide ELISA, grade relative to wild-type M2.
The target of a further experiment is M2TGEK peptide (influenza A virus). As to the kind of experiment: peptide ELISA, grade relative to wild-type M2.
For the next experiment, the target named is M2EG peptide (influenza A virus). As to the kind of experiment: peptide ELISA, grade relative to wild-type M2.
Experiment [1] addresses T1, bovine serum albumin (bovine, UniProt P02769 25-607).
T1 construct: carrier for immunization
Nature of the experiment: ELISA; positive = more than 2-fold OD450 of control.

For a further experiment, the target named is T2, OVA (UniProt P01012 2-386).
T2 construct: also called ovalbumin
T2 sequence: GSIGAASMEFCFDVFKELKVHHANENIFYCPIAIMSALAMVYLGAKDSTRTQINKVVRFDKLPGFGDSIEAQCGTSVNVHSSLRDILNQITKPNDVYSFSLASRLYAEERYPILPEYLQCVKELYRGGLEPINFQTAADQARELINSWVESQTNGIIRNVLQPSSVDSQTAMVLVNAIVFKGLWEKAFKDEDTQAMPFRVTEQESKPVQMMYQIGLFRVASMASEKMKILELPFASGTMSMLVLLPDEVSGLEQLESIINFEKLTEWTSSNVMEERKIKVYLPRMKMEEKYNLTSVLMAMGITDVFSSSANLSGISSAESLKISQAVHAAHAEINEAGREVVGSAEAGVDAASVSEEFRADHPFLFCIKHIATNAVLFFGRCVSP
The description is as above.

In another experiment the target is M2GHTGKS peptide (influenza A virus). Nature of the experiment: peptide ELISA.
Experiment [2] deals with T1, bovine serum albumin. Nature of the experiment: ELISA.

T1 sequence (P02769 25-607 limits assumed): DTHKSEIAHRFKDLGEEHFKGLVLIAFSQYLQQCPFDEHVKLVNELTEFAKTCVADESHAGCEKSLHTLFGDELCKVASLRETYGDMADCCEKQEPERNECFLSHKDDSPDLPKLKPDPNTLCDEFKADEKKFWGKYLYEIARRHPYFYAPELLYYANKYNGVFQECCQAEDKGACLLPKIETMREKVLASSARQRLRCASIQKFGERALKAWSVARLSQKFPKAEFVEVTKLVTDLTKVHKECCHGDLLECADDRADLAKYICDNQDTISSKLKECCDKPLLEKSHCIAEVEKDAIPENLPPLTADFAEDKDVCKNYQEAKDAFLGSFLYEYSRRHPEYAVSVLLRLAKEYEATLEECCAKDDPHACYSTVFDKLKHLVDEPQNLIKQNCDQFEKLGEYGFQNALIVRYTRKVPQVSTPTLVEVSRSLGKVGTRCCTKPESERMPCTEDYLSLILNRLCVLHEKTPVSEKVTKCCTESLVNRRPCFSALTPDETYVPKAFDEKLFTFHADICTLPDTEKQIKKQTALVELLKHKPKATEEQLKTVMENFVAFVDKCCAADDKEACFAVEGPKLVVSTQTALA
Procedure for M2EG peptide: (§1) ELISA: Antibody titers and antibody specificity as well as antibody production by hybridomas were determined by ELISA. […] After washing twice with PBS/0.1% Tween 20, plates were blocked with PBS/1% BSA (Sigma, St. Louis, Mo.) at 37° C. for 30 min., the antibody or serum was added to the wells and the plates were incubated at 37° C. for 1 hr. After washing four times, diluted HRP conjugated goat anti-human Immunoglobulin gamma chain specific antibody (Jackson Immunoresearch Laboratory, West Grove, Pa.) was added to the wells and incubated for 1 hr at 37° C. After washing four times, TMB substrate solution (DAKO, CA) was added and incubated for 30 min at room temperature. The optical density at 450 nm was measured by a microplate reader.
Procedure for M2GHTGKS peptide: as §1
Procedure for M2HTGEKS peptide: as §1
Procedure for M2KGENS peptide: as §1
Procedure for M2LGS peptide: as §1
Procedure for M2TDGEKS peptide: as §1
Procedure for M2TGEK peptide: as §1
Procedure for M2TGS peptide: as §1

B1: human anti-M2 monoclonal antibody no. Z3G1 (recombinant IgG1 type Z3, CHO; ATCC PTA-5967) (antibody, V domains shown)
VH: QVQLVQSGAEVKKPGASVKVSCKASGYTFTSYGISWVRQAPGQGLEWMGWISAYNGNTNYAQKLQGRVTMTTDTSTSTAYMELRSLRSDDTAVYYCARAAAGGYFQHWGQGTLVTVSS
VL: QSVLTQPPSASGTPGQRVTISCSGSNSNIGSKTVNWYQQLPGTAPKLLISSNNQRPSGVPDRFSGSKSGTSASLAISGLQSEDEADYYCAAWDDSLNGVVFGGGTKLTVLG
On to B1, for which the binding result with M2TDGEKS peptide, with M2KGENS peptide, with M2LGS peptide, in the experiment with M2TGS peptide, with M2HTGEKS peptide and with M2TGEK peptide was “binds” throughout. Moreover, the binding result was “binds” in the experiment with M2EG peptide, “no binding” with bovine serum albumin [1], “no binding” with OVA and “no binding (tested: <10% of binding to wild-type M2 peptide)” with M2GHTGKS peptide.

B2: human anti-M2 antibody Z3 (original, IgG3, hybridoma 113Z-3) (antibody, V domains shown)
VH: B1 VH
VL: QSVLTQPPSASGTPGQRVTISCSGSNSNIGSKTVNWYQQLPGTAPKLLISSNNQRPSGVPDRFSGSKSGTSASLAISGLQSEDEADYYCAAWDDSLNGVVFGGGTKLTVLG
As for B2, the binding result with bovine serum albumin [2] is listed as “no binding”.
